Experiments:
RPA32C, RPA32(172−270) [1] = target: T1, RPA32C, RPA32(172−270) (human, UniProt P15927 172-270); assay: NMR titration; 2D lineshape analysis (TITAN v1.6) of 1H-15N HSQC titrations of 50 μM 15N RSM with RPA32C (up to 16× excess) and dsDNA (up to 4× excess) and their competition; four titrations, 24 spectra, 16 residues fitted globally to a competitive binding model; conditions: both partners purified
T1 construct: Used 15N-labelled or unlabelled in NMR; unlabelled in ITC; also called RPA32C domain; source: E. coli BL21(DE3), purified (IMAC, TEV cleavage, second IMAC, Superdex 75); not shown: His6, N-terminal, cleaved
T1 sequence (P15927 172-270): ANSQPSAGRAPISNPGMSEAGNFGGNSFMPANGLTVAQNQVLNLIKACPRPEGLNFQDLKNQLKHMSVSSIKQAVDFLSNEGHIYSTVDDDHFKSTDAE

RPA32C, RPA32(172−270) [2] = target: T1, RPA32C, RPA32(172−270); assay: NMR titration; 1H-15N HSQC of 50 or 100 μM 15N-labelled protein (RECQ4 or RPA) with step-wise addition or an excess of the unlabelled partner; buffer and temperature in Supplementary Table 6; conditions: both partners purified
RECQ4(322-400) [3] = target: T2, RECQ4(322-400) (Homo sapiens, UniProt O94761 322-400); assay: NMR; only RSM residues affected; FA: 25 mM KPO4 pH 6.5, 70 mM KCl (or 500 mM NaCl), 25 C; ITC: same low-salt buffer, 30 C; NMR dsDNA: 50 mM NaPO4 pH 6.0, 150 mM NaCl, 298 K; NMR G4: 25 mM KPO4; conditions: protein: recombinant; tags: N-terminal His6-TEV construct (pET-M11); label: 5' FITC on strand 1 (FA); blunt
T2 sequence: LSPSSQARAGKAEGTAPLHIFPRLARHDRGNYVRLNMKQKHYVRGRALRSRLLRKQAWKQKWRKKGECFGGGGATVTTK

RSM, RECQ4(348-388) [4] = target: T3, RSM, RECQ4(348-388) (Homo sapiens, UniProt O94761); assay: fluorescence anisotropy; low ionic strength (70 mM KCl); FA: 25 mM KPO4 pH 6.5, 70 mM KCl (or 500 mM NaCl), 25 C; ITC: same low-salt buffer, 30 C; NMR dsDNA: 50 mM NaPO4 pH 6.0, 150 mM NaCl, 298 K; NMR G4: 25 mM KPO4; conditions: protein: recombinant, tags: N-terminal His6-TEV construct (pET-M11)
T3 chain: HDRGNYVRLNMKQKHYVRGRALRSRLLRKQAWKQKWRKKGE

RSM, RECQ4(348-388) [5] = target: T3, RSM, RECQ4(348-388); assay: NMR 2D lineshape analysis (competition with RPA32C); 150 mM NaCl, pH 6.0, 298 K; kon 1.5e10 M-1 s-1; FA: 25 mM KPO4 pH 6.5, 70 mM KCl (or 500 mM NaCl), 25 C; ITC: same low-salt buffer, 30 C; NMR dsDNA: 50 mM NaPO4 pH 6.0, 150 mM NaCl, 298 K; NMR G4: 25 mM KPO4; conditions: protein: recombinant; tags: N-terminal His6-TEV construct (pET-M11); label: 5' FITC on strand 1 (FA); blunt
RSM, RECQ4(348-388) [6] = target: T3, RSM, RECQ4(348-388); assay: ITC; 70 mM KCl, pH 6.5, 30 C; FA: 25 mM KPO4 pH 6.5, 70 mM KCl (or 500 mM NaCl), 25 C; ITC: same low-salt buffer, 30 C; NMR dsDNA: 50 mM NaPO4 pH 6.0, 150 mM NaCl, 298 K; NMR G4: 25 mM KPO4; conditions: protein: recombinant, tags: N-terminal His6-TEV construct (pET-M11)
sRSM, RECQ4(358-388) [7] = target: T4, sRSM, RECQ4(358-388) (Homo sapiens, UniProt O94761); assay: stopped-flow/CD/NMR/light scattering global fit; Kd,1: initial 1:1 complex; FA: 25 mM KPO4 pH 6.5, 70 mM KCl (or 500 mM NaCl), 25 C; ITC: same low-salt buffer, 30 C; NMR dsDNA: 50 mM NaPO4 pH 6.0, 150 mM NaCl, 298 K; NMR G4: 25 mM KPO4; conditions: intramolecular parallel G4
T4 chain: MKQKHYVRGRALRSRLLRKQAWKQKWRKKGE

RSM, RECQ4(348-388) [8] = target: T3, RSM, RECQ4(348-388); assay: NMR; 300 mM NaCl, pH 6.0, 288 K; FA: 25 mM KPO4 pH 6.5, 70 mM KCl (or 500 mM NaCl), 25 C; ITC: same low-salt buffer, 30 C; NMR dsDNA: 50 mM NaPO4 pH 6.0, 150 mM NaCl, 298 K; NMR G4: 25 mM KPO4; conditions: protein: recombinant; tags: N-terminal His6-TEV construct (pET-M11); 10 bp duplex with unpaired TTTT arms (3' of strand 1, 5' of strand 2)
RECQ4(322-400) [9] = target: T2, RECQ4(322-400); assay: EMSA; profile indistinguishable from RSM and sRSM; FA: 25 mM KPO4 pH 6.5, 70 mM KCl (or 500 mM NaCl), 25 C; ITC: same low-salt buffer, 30 C; NMR dsDNA: 50 mM NaPO4 pH 6.0, 150 mM NaCl, 298 K; NMR G4: 25 mM KPO4; conditions: protein: recombinant; tags: N-terminal His6-TEV construct (pET-M11); label: 5' FITC on strand 1; blunt
sRSM, RECQ4(358-388) [10] = target: T4, sRSM, RECQ4(358-388); assay: EMSA; FA: 25 mM KPO4 pH 6.5, 70 mM KCl (or 500 mM NaCl), 25 C; ITC: same low-salt buffer, 30 C; NMR dsDNA: 50 mM NaPO4 pH 6.0, 150 mM NaCl, 298 K; NMR G4: 25 mM KPO4; conditions: label: 5' FITC on strand 1; blunt
RSM, RECQ4(348-388) [11] = target: T3, RSM, RECQ4(348-388); assay: as above; conditions: protein: recombinant; tags: N-terminal His6-TEV construct (pET-M11); label: 5' FITC on strand 1; blunt
sRSM, RECQ4(358-388) [12] = target: T4, sRSM, RECQ4(358-388); assay: NMR; largest CSP at 5'-end G-tetrad; FA: 25 mM KPO4 pH 6.5, 70 mM KCl (or 500 mM NaCl), 25 C; ITC: same low-salt buffer, 30 C; NMR dsDNA: 50 mM NaPO4 pH 6.0, 150 mM NaCl, 298 K; NMR G4: 25 mM KPO4; conditions: label: 5' FITC (FA); intramolecular hybrid G4
RSM, RECQ4(348-388) [13] = target: T3, RSM, RECQ4(348-388); assay: fluorescence anisotropy; low ionic strength (70 mM KCl); submicromolar; FA: 25 mM KPO4 pH 6.5, 70 mM KCl (or 500 mM NaCl), 25 C; ITC: same low-salt buffer, 30 C; NMR dsDNA: 50 mM NaPO4 pH 6.0, 150 mM NaCl, 298 K; NMR G4: 25 mM KPO4; conditions: protein: recombinant, tags: N-terminal His6-TEV construct (pET-M11)
RSM 5E mutant = target: T5, RSM 5E mutant (Homo sapiens, UniProt O94761 348-388, R375E;K376E;K380E;K382E;R384E); assay: NMR; binding not detectable, no droplets; FA: 25 mM KPO4 pH 6.5, 70 mM KCl (or 500 mM NaCl), 25 C; ITC: same low-salt buffer, 30 C; NMR dsDNA: 50 mM NaPO4 pH 6.0, 150 mM NaCl, 298 K; NMR G4: 25 mM KPO4; conditions: protein: recombinant; tags: N-terminal His6-TEV construct (pET-M11); label: 5' FITC (FA); intramolecular hybrid G4
T5 chain: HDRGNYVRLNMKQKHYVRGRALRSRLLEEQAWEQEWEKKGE

[14] = label: 5' FITC (FA), intramolecular hybrid G4

B1: RECQ4-specific motif (RSM), RECQ4(348–388) (domain or fragment, human, UniProt O94761 348-388, looked up)
chain: HDRGNYVRLNMKQKHYVRGRALRSRLLRKQAWKQKWRKKGE
notes: H. sapiens RECQ4 residues 348-388 (RSM), cloned in pET-M11; Used 15N-labelled or unlabelled in NMR; unlabelled in ITC; source: E. coli BL21(DE3), purified (IMAC, TEV cleavage, Mono S, Superdex 75); not shown: His6, N-terminal, cleaved
- Kd (RPA32C, RPA32(172−270) [1]): 117 µM
- kon (RPA32C, RPA32(172−270) [1]): 2.4e+08 M⁻¹ s⁻¹

B2: RECQ4(322–400) (domain or fragment, human, UniProt O94761 322-400, looked up)
chain: LSPSSQARAGKAEGTAPLHIFPRLARHDRGNYVRLNMKQKHYVRGRALRSRLLRKQAWKQKWRKKGECFGGGGATVTTK
notes: Used 15N-labelled or unlabelled in NMR; source: E. coli BL21(DE3), purified (IMAC, TEV cleavage, Mono S, Superdex 75); not shown: His6, N-terminal, cleaved
- binding result (RPA32C, RPA32(172−270) [2]): binds

B3: RSM W379A/W383A (domain or fragment, human, UniProt O94761 348-388, looked up)
chain: HDRGNYVRLNMKQKHYVRGRALRSRLLRKQAAKQKARKKGE
notes: H. sapiens RECQ4 residues 348-388 with W379A and W383A, made from the RECQ4(348–388) expression vector; also called RSM double tryptophan mutant; source: E. coli BL21(DE3), purified; not shown: His6, N-terminal, cleaved
- binding result (RPA32C, RPA32(172−270) [2]): binds

B4: ds10 (dsDNA)
DNA 1: CAGCGCTCGG
DNA 2: CCGAGCGCTG
- binding result (RECQ4(322-400) [3]): binds
- Kd (RSM, RECQ4(348-388) [4]; label: 5' FITC on strand 1 (FA), blunt): ~1 µM
- Kd (RSM, RECQ4(348-388) [5]): 6.3 ± 0.6 µM

B5: T95-2T parallel G4 (structured_DNA)
DNA: TTGGGTGGGTGGGTGGGT
- Kd (RSM, RECQ4(348-388) [6]; intramolecular parallel G4): 0.2 ± 0.08 µM
- Kd (sRSM, RECQ4(358-388) [7]): 3.1 ± 0.2 µM

B6: splayed-arm Y14 (dsDNA)
DNA 1: CAGCGCTCGGTTTT
DNA 2: TTTTCCGAGCGCTG
- binding result (RSM, RECQ4(348-388) [8]): binds

B7: ds49 (dsDNA)
DNA 1: AGCTACCATGCCTGCACGAATTAAGCAATTCGTAATCATGGTCATAGCT
DNA 2: AGCTATGACCATGATTACGAATTGCTTAATTCGTGCAGGCATGGTAGCT
- binding result (RECQ4(322-400) [9]): binds
- binding result (sRSM, RECQ4(358-388) [10]): binds
- binding result (RSM, RECQ4(348-388) [11]): binds

B8: HT hybrid G4 (structured_DNA)
DNA: TTGGGTTAGGGTTAGGGTTAGGGA
- binding result (sRSM, RECQ4(358-388) [12]): binds
- Kd (RSM, RECQ4(348-388) [6]; [14]): 0.42 ± 0.14 µM
- Kd (RSM, RECQ4(348-388) [13]; [14]): < 1 µM
- binding result (RSM 5E mutant): no binding

B9: CEB1 parallel G4 (structured_DNA)
DNA: AGGGGGGAGGGAGGGTGG
- Kd (RSM, RECQ4(348-388) [13]; label: 5' FITC or Cy3 (FA, EMSA), parallel G4): < 1 µM

B10: ss10 (ssDNA)
DNA: CAGCGCTCGG
- Kd (RSM, RECQ4(348-388) [4]; label: 5' FITC (FA)): ~1 µM

Reference: PMC10598209 (Nature Communications, 2023)
